Consider 3 molecules from patent publication US20210032351A1 (XDCEXPLORER SHANGHAI, published 2021).

Read-outs that look alike come from different tables or passages of the source.

Test [1] has as its target T1, human EGFRvIII-hFc protein (human, UniProt P00533 25-645).
T1 construct: extracellular domain; made in HEK293 cells, purified on protein A; also called immunogen A; hFc-tagged EGFRvIII protein; not shown: human IgG Fc fragment (hFc) of the pCpC vector
The test is described as follows: ELISA, coated EGFRvIII-hFc, antibody 0.001 nM. An outline of the steps: (§1)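 The antibody is applied to BSA-blocked wells pre-coated with EGFRvIII-hFc (1.0 μg/mL, overnight, 4° C) for 2 h at 37° C. Detection uses an HRP secondary (2 h, 37° C), TMB for 30 min, HCl stop and absorbance at 450 nm.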
For orientation: ELISA stands for enzyme-linked immunosorbent assay.

For test [2], the target named is T1, human EGFRvIII-hFc protein. The test is described as follows: ELISA, coated EGFRvIII-hFc, antibody 10 nM. The procedure, abridged: as §1
Test [3] concerns the target T1, human EGFRvIII-hFc protein. The test is described as follows: ELISA, coated EGFRvIII-hFc, antibody 0.01 nM. The procedure, abridged:
as §1

In test [4] the target is T2, human EGFR protein (wild-type), on cells (human, UniProt P00533 25-1210).
T2 construct: whole, on cells; transfected on CHO-K1 cells; endogenous on the human cell lines; the cell is named under assay; also called wild-type EGFR; hEGFR
The test is described as follows: FACS on A431 cells. How it is done:
(§2) The cells are washed twice with the HBSS buffer and are counted, and then the cells are diluted with the HBSS buffer to 2×10⁶ cells/ml, added with 1% goat serum blocking solution, with the percentage being the mass percentage, and incubated on ice for 30 minutes, and then centrifugally washed twice with the HBSS buffer. The collected cells are suspended to 2×10⁶ cells/mL with an FACS buffer (HBSS+1% BSA, with the percentage being the mass percentage), added to a 96-well FACS reaction plate at 100 μL/well, then added with 100 μL/well of the purified EGFRvIII antibody (samples to be tested) obtained in example 2, and incubated on ice for 2 hours. The plate is centrifugally washed twice with the FACS buffer, added with 100 μL/well of a fluorescence (Alexa 488) labeled secondary antibody (purchased from Invitrogen), and then incubated on ice for 1 hour. […] The cells are suspended in 100 μL of the FACS buffer, and the results are detected and analyzed by FACS (FACS Calibur, purchased from BD). Data analysis is performed by using the software (CellQuest) to obtain the mean fluorescence intensity (MFI) of the cells. Data is further analyzed by using the software (GraphPad Prism5) to perform data fitting and calculate EC50. […]

For test [5], the target named is T1, human EGFRvIII-hFc protein. The test is described as follows: ELISA, coated EGFRvIII-hFc, antibody 100 nM. An outline of the steps: as §1
Test [6] has as its target T1, human EGFRvIII-hFc protein. The test is described as follows: ELISA, coated EGFRvIII-hFc, antibody 0.1 nM. An outline of the steps: as §1
For test [7], the target named is T1, human EGFRvIII-hFc protein. The test is described as follows: ELISA, plate coated with human EGFRvIII-hFc, HRP secondary antibody, absorbance at 450 nm. How it is done: (§3) The purified immunogen A (EGFRvIII-hFc) obtained in example 1 (for the preparation method, see step (I) in example 1) is diluted with PBS to a final concentration of 1.0 μg/mL, and then added to a 96-well ELISA plate at 100 μl/well. The plate is sealed with a plastic film and incubated at 4° C. overnight. The next day, the plate is washed twice with a plate washing solution [PBS+0.01% (v/v) Tween20], and added with a blocking solution [PBS+0.01% (v/v) Tween20+1% (w/w) BSA] for blocking 2 hours at room temperature. The blocking solution is discarded, and the purified EGFRvIII antibody obtained in example 2 is added at 100 μl/well. The plate is incubated for 2 hours at 37° C., and then washed 3 times with the plate washing solution [PBS+0.01% (v/v) Tween20]. The plate is added with an HRP (horseradish peroxidase) labeled secondary antibody (purchased from Sigma), incubated at 37° C. for 2 hours, and then washed 3 times with the plate washing solution [PBS+0.01% (v/v) Tween20]. The plate is added with 100 μl of TMB substrate/well, incubated for 30 minutes at room temperature, and then added with 100 μl of stopping solution (1.0N HCl)/well. A450 nm value is read using an ELISA plate reader (SpectraMax 384plus, purchased from Molecular Device), and the results are shown in FIG. 6 and table 10.

The target in test [8] is T1, human EGFRvIII-hFc protein. The test is described as follows: ELISA, coated EGFRvIII-hFc, antibody 0.0001 nM. The procedure, abridged: as §1
The target of test [9] is T1, human EGFRvIII-hFc protein. The test is described as follows: ELISA, coated EGFRvIII-hFc, antibody 1 nM. An outline of the steps:
as §1

The target in test [10] is T1, human EGFRvIII-hFc protein. The test is described as follows: ELISA, plate coated with human EGFRvIII-hFc, HRP secondary antibody, absorbance at 450 nm. The protocol:
as §3, with “temperature. […]” for “temperature. The blocking solution is discarded, and the purified EGFRvIII antibody obtained in example 2 is added at 100 μl/well.”, “FIG. 11” for “FIG. 6”, “table 19.” for “table 10.”
This is another data set of the same source.

For test [11], the target named is T2, human EGFR protein (wild-type), on cells. The test is described as follows: FACS on HFF-1, HFL-I, QSG-7701, HEEC, HEB, WPMY-1 and MCF-10A cells.
For test [12], the target named is T3, human wild-type EGFR protein on the cell surface (human, UniProt P00533 25-1210).
T3 construct: whole, on cells; Endogenous on A431, HEB, U87MG cells and normal human primary hepatocytes; transfected on CHOk1-EGFR cells; The cell is named under assay; also called A431; HEB
The test is described as follows: FACS on A431 cells. How it is done: as §2

For test [13], the target named is T4, human EGFRvIII-hFc protein (human, UniProt P00533 25-645).
T4 construct: extracellular domain; also called immunogen A; hFc-tagged EGFRvIII protein; not shown: human IgG Fc fragment (hFc) of the pCpC vector
The test is described as follows: ELISA, EGFRvIII-hFc coated.

Test [14] concerns the target T5, human EGFRvIII protein on the cell surface (human, UniProt P00533 25-1210).
T5 construct: whole, on cells; the cell line is named under assay; also called hEGFRvIII; U87MG-hEGFRvIII
The test is described as follows: FACS on U87MG-hEGFRvIII cells.

B1: Murine anti-7E5 (antibody, V domains shown)
VH: EIQLQQSGPELVKPGASVKVSCKASGYSFTDYNMYWVKQSHGKSLEWIGYVDPSNGGTNYNQKFKGKATLTVDKSSSTAFMHLNSLTSEDSAVYYCARGFFDYWGQGTTLTVSS
VL: DIVMTQSPSSLTVTAGEKVTMSCKSSQSLLNSGNQKNYLTWYQQKPGQPPKLLIYWASNRESGVPDRFTGSGSGKDFTLTISSVQAEDLAVYYCQNDYRYPVTFGAGTKLELK
notes: murine hybridoma antibody; also called 7E5-2A9; murine anti-7E5-2
In general, EC50 (read off the curve) refers to the midpoint of the concentration-response curve. A higher EC50 (read off the curve) goes with a need for much substance. Turning to B1, the OD450 nm in [1] came to 0.17; in [2] it was 3.14; in [3] it was 0.35; in test [5], 3.36; in test [6], 1.68; in test [8] it was 0.15. The molecule also returned an OD450 nm in test [9] of 3.18. Besides, the binding result in test [4] is on record as “no binding”. Besides, in [7], the “EC50 (read off the curve)” value is ~0.02 nM.

B2: Chimeric antibody 7E5 (antibody, human IgG1, V domains shown)
VH: EIQLQQSGPELVKPGASVKVSCKASGYSFTDYNMYWVKQSHGKSLEWIGYVDPSNGGTNYNQKFKGKATLTVDKSSSTAFMHLNSLTSEDSAVYYCARGFFDYWGQGTTLTVSS
VL: DIVMTQSPSSLTVTAGEKVTMSCKSSQSLLNSGNQKNYLTWYQQKPGQPPKLLIYWASNRESGVPDRFTGSGSGKDFTLTISSVQAEDLAVYYCQNDYRYPVTFGAGTKLELK
notes: also called 7E5-2A9 (chimeric)
As to B2, the “EC50 (read off the curve)” value in test [10] was ~0.03 nM. The binding result in test [11] is “no binding”.

B3: Chimeric antibody 7E5 (antibody, human IgG1, V domains shown)
VH: EIQLQQSGPELVKPGASVKVSCKASGYSFTDYNMYWVKQSHGKSLEWIGYVDPSNGGTNYNQKFKGKATLTVDKSSSTAFMHLNSLTSEDSAVYYCARGFFDYWGQGTTLTVSS
VL: DIVMTQSPSSLTVTAGEKVTMSCKSSQSLLNSGNQKNYLTWYQQKPGQPPKLLIYWASNRESGVPDRFTGSGSGKDFTLTISSVQAEDLAVYYCQNDYRYPVTFGAGTKLELK
notes: also called clone 7E5-2A9
By EC50 is commonly meant the midpoint of the concentration-response curve. Read a low EC50 as a more potent agent. Regarding B3, the binding result in test [12] is reported as “no binding”. In addition, in [13], the “OD450 nm at 0.0001 nM antibody” value came out at 0.09 OD450, the “OD450 nm at 0.001 nM antibody” value was found to be 0.08 OD450, the “OD450 nm at 0.01 nM antibody” value is 0.19 OD450 and the “OD450 nm at 0.1 nM antibody” value is 1.18 OD450. For the same molecule, in test [13], the “OD450 nm at 1 nM antibody” value was 3.45 OD450, the “OD450 nm at 10 nM antibody” value was 3.63 OD450 and the “OD450 nm at 100 nM antibody” value is 3.6 OD450. This molecule yielded an EC50 in test [14] of 1.9 nM.
